According to paper PMC6739345, “CAND1 regulates lunapark for the proper tubular network of the endoplasmic reticulum” (Scientific Reports, 2019):
Ends that are not written are not given here.

B1: His-Lnp ΔUb (Lnp lacking the N-terminal ubiquitin ligase domain) (domain or fragment, human, UniProt Q9C0E8 46-428, looked up)
chain: LILYSSVLYLFTCLIVYLWYLPDEFTARLAMTLPFFAFPLIIWSIRTVIIFFFSKRTERNNEALDDLKSQRKKILEEVMEKETYKTAKLILERFDPDSKKAKECEPPSAGAAVTARPGQEIRQRTAAQRNLSPTPASPNQGPPPQVPVSPGPPKDSSAPGGPPERTVTPALSSNVLPRHLGSPATSVPGMGLHPPGPPLARPILPRERGALDRIVEYLVGDGPQNRYALICQQCFSHNGMALKEEFEYIAFRCAYCFFLNPARKTRPQAPRLPEFSFEKRQVVEGSSSVGPLPSGSVLSSDNQFNEESLEHDVLDDNTEQTDDKIPATEQTNQVIEKASDSEEPEEKQETENEEASVIETNSTVPGADSIPDPELSGESLTAE
notes: lunapark (Lnp), human, lacking Lnp Ub (the N-terminal cytoplasmic domain, 1–45 aa), in pET28a(+); The start 46 follows from the printed limits of Lnp Ub (1–45 aa); source: E. coli BL21 (DE3), purified (Ni-agarose)

How the values were obtained:
MBP-fused CAND1 [1] = target: T1, MBP-fused CAND1 (human, UniProt Q86VP6 1-1230); assay: pull-down; His-Lnp WT or deletion mutants (0.5 nmol) immobilised on Ni-agarose, incubated with MBP-CAND1 or MBP alone (3 nmol) in buffer G with 10 mM imidazole, 4 °C 2 h; CBB staining; conditions: both partners purified
T1 construct: Cullin-associated and neddylation-dissociated 1 (CAND1), human; cDNA bought from the Kazusa DNA Research Institute, in pMAL-C2; also called MBP-CAND1; source: E. coli Rosetta-Gami, purified (amylose resin, eluted with maltose)
T1 sequence (looked up): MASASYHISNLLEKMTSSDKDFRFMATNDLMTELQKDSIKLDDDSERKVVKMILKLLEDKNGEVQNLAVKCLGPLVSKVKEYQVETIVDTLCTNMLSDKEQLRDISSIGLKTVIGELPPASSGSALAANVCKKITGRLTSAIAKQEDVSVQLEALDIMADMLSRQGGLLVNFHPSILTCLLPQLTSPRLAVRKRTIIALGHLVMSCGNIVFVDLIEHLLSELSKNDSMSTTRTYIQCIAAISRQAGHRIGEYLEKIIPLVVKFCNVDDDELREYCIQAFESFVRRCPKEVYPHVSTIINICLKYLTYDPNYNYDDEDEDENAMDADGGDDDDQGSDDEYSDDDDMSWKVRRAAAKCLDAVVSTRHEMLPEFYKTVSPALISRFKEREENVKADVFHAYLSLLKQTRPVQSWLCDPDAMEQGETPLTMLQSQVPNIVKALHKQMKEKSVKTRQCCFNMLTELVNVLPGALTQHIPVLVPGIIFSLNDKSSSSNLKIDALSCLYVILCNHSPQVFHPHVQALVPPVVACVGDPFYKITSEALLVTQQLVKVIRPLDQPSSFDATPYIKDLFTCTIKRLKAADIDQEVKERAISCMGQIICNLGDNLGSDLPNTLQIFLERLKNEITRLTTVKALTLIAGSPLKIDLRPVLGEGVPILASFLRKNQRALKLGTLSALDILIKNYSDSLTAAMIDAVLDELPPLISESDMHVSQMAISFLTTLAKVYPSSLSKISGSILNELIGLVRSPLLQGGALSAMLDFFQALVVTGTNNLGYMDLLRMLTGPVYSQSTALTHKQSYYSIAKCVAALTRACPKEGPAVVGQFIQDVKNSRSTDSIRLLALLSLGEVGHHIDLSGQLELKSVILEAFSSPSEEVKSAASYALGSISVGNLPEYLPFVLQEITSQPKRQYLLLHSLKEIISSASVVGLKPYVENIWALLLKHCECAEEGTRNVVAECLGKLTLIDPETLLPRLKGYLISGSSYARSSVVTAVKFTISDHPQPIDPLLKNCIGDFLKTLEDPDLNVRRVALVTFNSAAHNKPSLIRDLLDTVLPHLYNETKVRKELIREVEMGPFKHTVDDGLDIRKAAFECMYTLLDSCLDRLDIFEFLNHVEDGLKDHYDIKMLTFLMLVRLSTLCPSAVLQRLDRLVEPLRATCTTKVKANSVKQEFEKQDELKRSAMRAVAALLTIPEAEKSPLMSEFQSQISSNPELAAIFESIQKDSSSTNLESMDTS

MBP-fused CAND1 [2] = target: T1, MBP-fused CAND1; assay: sucrose density gradient ultracentrifugation; His-Lnp (0.6 nmol) alone or incubated with MBP-CAND1 (2 nmol) in buffer H (20 mM Tris-HCl pH 7.5, 150 mM NaCl, 1% Triton X-100), 10–40% (w/v) sucrose gradient, 200,000 x g, 4 °C, 20 h; 17 fractions, CBB staining; conditions: both partners purified
[3] = target: the molecule itself; assay: as above
[4] = target: B1; assay: pull-down; His-Lnp ΔUb (0.6 nmol) immobilised on Ni-agarose, incubated with GST-Lnp Ub (3 nmol) or GST alone, or with GST-Lnp Ub (1.2 nmol) and MBP-CAND1 or MBP alone (6 nmol), in buffer G with 20 mM imidazole and 1 mM DTT, 4 °C 2 h; CBB staining; conditions: both partners purified
MBP-fused CAND1 [5] = target: T1, MBP-fused CAND1; assay: pull-down; GST-Lnp or GST-Lnp Ub (0.6 nmol) immobilised on glutathione Sepharose, incubated with MBP-CAND1 (6 nmol) in buffer A with 1% Triton X-100, 4 °C 2 h; CBB staining; conditions: both partners purified

Binder: B1
- binding result (MBP-fused CAND1 [1]): binds

B2: His-Lnp ΔTM (transmembrane domains replaced by a (GGS)3 linker) (natural protein, human)
chain: MGGLFSRWRTKPSTVEVLESIDKEIQALEEFREKNQRLQKLWVGGGSGGSGGSRTERNNEALDDLKSQRKKILEEVMEKETYKTAKLILERFDPDSKKAKECEPPSAGAAVTARPGQEIRQRTAAQRNLSPTPASPNQGPPPQVPVSPGPPKDSSAPGGPPERTVTPALSSNVLPRHLGSPATSVPGMGLHPPGPPLARPILPRERGALDRIVEYLVGDGPQNRYALICQQCFSHNGMALKEEFEYIAFRCAYCFFLNPARKTRPQAPRLPEFSFEKRQVVEGSSSVGPLPSGSVLSSDNQFNEESLEHDVLDDNTEQTDDKIPATEQTNQVIEKASDSEEPEEKQETENEEASVIETNSTVPGADSIPDPELSGESLTAE
notes: lunapark (Lnp), human, the stretch before the transmembrane domains (45–100 aa); polypeptide linker (GGS)3 in place of residues 45–100; lunapark (Lnp), human, the stretch after the transmembrane domains (45–100 aa); source: E. coli BL21 (DE3), purified (Ni-agarose)
- binding result (MBP-fused CAND1 [1]): binds

B3: His-Lnp ΔCC (Lnp lacking the coiled-coil domain) (natural protein, human, UniProt Q9C0E8 1-428, looked up)
chain: MGGLFSRWRTKPSTVEVLESIDKEIQALEEFREKNQRLQKLWVGRLILYSSVLYLFTCLIVYLWYLPDEFTARLAMTLPFFAFPLIIWSIRTVIIFFFSKKAKECEPPSAGAAVTARPGQEIRQRTAAQRNLSPTPASPNQGPPPQVPVSPGPPKDSSAPGGPPERTVTPALSSNVLPRHLGSPATSVPGMGLHPPGPPLARPILPRERGALDRIVEYLVGDGPQNRYALICQQCFSHNGMALKEEFEYIAFRCAYCFFLNPARKTRPQAPRLPEFSFEKRQVVEGSSSVGPLPSGSVLSSDNQFNEESLEHDVLDDNTEQTDDKIPATEQTNQVIEKASDSEEPEEKQETENEEASVIETNSTVPGADSIPDPELSGESLTAE
notes: lunapark (Lnp), human, lacking the coiled-coil domain (100–143 aa), in pET28a(+); source: E. coli BL21 (DE3), purified (Ni-agarose)
- binding result (MBP-fused CAND1 [1]): binds

B4: hexa histidine-tagged Lnp, wild type (natural protein, human, UniProt Q9C0E8 1-428, looked up)
chain: MGGLFSRWRTKPSTVEVLESIDKEIQALEEFREKNQRLQKLWVGRLILYSSVLYLFTCLIVYLWYLPDEFTARLAMTLPFFAFPLIIWSIRTVIIFFFSKRTERNNEALDDLKSQRKKILEEVMEKETYKTAKLILERFDPDSKKAKECEPPSAGAAVTARPGQEIRQRTAAQRNLSPTPASPNQGPPPQVPVSPGPPKDSSAPGGPPERTVTPALSSNVLPRHLGSPATSVPGMGLHPPGPPLARPILPRERGALDRIVEYLVGDGPQNRYALICQQCFSHNGMALKEEFEYIAFRCAYCFFLNPARKTRPQAPRLPEFSFEKRQVVEGSSSVGPLPSGSVLSSDNQFNEESLEHDVLDDNTEQTDDKIPATEQTNQVIEKASDSEEPEEKQETENEEASVIETNSTVPGADSIPDPELSGESLTAE
notes: lunapark (Lnp), human; cDNA amplified from a human cDNA library, in pET28a(+); also called His-Lnp; His-Lnp WT; source: E. coli BL21 (DE3), purified (Ni-agarose)
- binding result (MBP-fused CAND1 [2]): binds
- binding result [3]: binds

B5: GST-Lnp Ub (N-terminal ubiquitin ligase domain of Lnp) (domain or fragment, human, UniProt Q9C0E8 1-45, looked up)
chain: {GST}-MGGLFSRWRTKPSTVEVLESIDKEIQALEEFREKNQRLQKLWVGR
notes: lunapark (Lnp), human, N-terminal cytoplasmic domain (1–45 aa, Ub), in pGEX-6P-1; source: E. coli BL21 (DE3), purified (glutathione Sepharose, eluted with glutathione)
- binding result [4]: binds

B6: GST-fused Lnp (lunapark) (natural protein, human, UniProt Q9C0E8 1-428, looked up)
chain: MGGLFSRWRTKPSTVEVLESIDKEIQALEEFREKNQRLQKLWVGRLILYSSVLYLFTCLIVYLWYLPDEFTARLAMTLPFFAFPLIIWSIRTVIIFFFSKRTERNNEALDDLKSQRKKILEEVMEKETYKTAKLILERFDPDSKKAKECEPPSAGAAVTARPGQEIRQRTAAQRNLSPTPASPNQGPPPQVPVSPGPPKDSSAPGGPPERTVTPALSSNVLPRHLGSPATSVPGMGLHPPGPPLARPILPRERGALDRIVEYLVGDGPQNRYALICQQCFSHNGMALKEEFEYIAFRCAYCFFLNPARKTRPQAPRLPEFSFEKRQVVEGSSSVGPLPSGSVLSSDNQFNEESLEHDVLDDNTEQTDDKIPATEQTNQVIEKASDSEEPEEKQETENEEASVIETNSTVPGADSIPDPELSGESLTAE
notes: lunapark (Lnp), human; cDNA amplified from a human cDNA library, in pGEX-6P-1; the same cDNA was subcloned into all vectors; also called GST-Lnp; GST-Lnp WT; source: E. coli BL21 (DE3), purified (glutathione Sepharose)
- binding result (MBP-fused CAND1 [5]): binds

B7: His-Lnp ΔZn + LNPARK (Lnp lacking the zinc finger motif and the following LNPARK amino acids) (natural protein, human, UniProt Q9C0E8 1-428, looked up)
chain: MGGLFSRWRTKPSTVEVLESIDKEIQALEEFREKNQRLQKLWVGRLILYSSVLYLFTCLIVYLWYLPDEFTARLAMTLPFFAFPLIIWSIRTVIIFFFSKRTERNNEALDDLKSQRKKILEEVMEKETYKTAKLILERFDPDSKKAKECEPPSAGAAVTARPGQEIRQRTAAQRNLSPTPASPNQGPPPQVPVSPGPPKDSSAPGGPPERTVTPALSSNVLPRHLGSPATSVPGMGLHPPGPPLARPILPRERGALDRIVEYLVGDGPQNRYALTRPQAPRLPEFSFEKRQVVEGSSSVGPLPSGSVLSSDNQFNEESLEHDVLDDNTEQTDDKIPATEQTNQVIEKASDSEEPEEKQETENEEASVIETNSTVPGADSIPDPELSGESLTAE
notes: lunapark (Lnp), human, lacking the zinc finger motif and the following LNPARK amino acids (275–309 aa), in pET28a(+); source: E. coli BL21 (DE3), purified (Ni-agarose)
- binding result (MBP-fused CAND1 [1]): binds
